Data taken from article PMC4024219.

Biological target: FKBP-caspase-8 (Site-1 mutant) (human) (UniProt Q14790)

activity after heterodimerization (with AP21967), relative to Mature caspase-8: 20%
Substance: FRB-FLIPL (wt) (from UniProt O15519 188-480)
